# In patent US20070098693A1, “Methods for enhancing engraftment of purified hematopoietic stem cells in allogenic recipients” (priority 2003, published 2007):
# B1: FL: Recombinant human Flt-3 Ligand (FL, kindly provided by Amgen, Seattle, Wash.) (protein, UniProt P49771 27-235, looked up)
# Fms-related tyrosine kinase 3 …: TQDCSFQHSPISSDFAVKIRELSDYLLQDYPVTVASNLQDEELCGGLWRLVLAQRWMERLKTVAGSKMQGLLERVNTEIHFVTKCAFQPPPSCLRFVQTNISRLLQETSEQLVALKPWITRQNFSRCLELQCQPDSSTLPPPWSPRPLEATAPTAPQPPLLLLLLLPVGLLLLAAAWCLHWQRTRRRTPRPGEQVPPVPSPQDLLLVEH
# Legend:
# Format in all cases: cell-based, mice
# FL-derived p-preDC = test: Cytokine production by sorted FL-derived p-preDC (ELISA); conditions: p-preDC from FL bone marrow culture, overnight culture
# Procedure: (§1) Culture of BMC with FL. BMC were resuspended at 10^6 cells/ml in culture medium consisting of RPMI 1640 (Gibco), 10% FBS (Gibco), 1 mM Sodium pyruvate (Gibco), 10 mM Hepes (Gibco), 2 mM L-Glutamine (Gibco), Penicillin 100 U/mL, 100 μg/mL Streptomycin, (Gibco), and 10^−5 M 2-mercaptoethanol (Sigma), supplemented with human FL (100 ng/ml, generous gift from Amgen, Seattle, Wash.). Every 5 days of culture, half of the medium was replaced by fresh cytokine-supplemented culture medium according to a protocol previously described^30.
# CpG oligodeoxynucleotides (ODN) stimulation. Sorted p-preDC or FC were cultured for 18 hours at 10^5 cells/200 μL in 96 well round-bottom culture plates in culture medium in the presence or absence of Toll-like receptor (TLR)-9 ligand, CPG-ODN 1668 (TCCATGACGTTCCGATGCT) (SEQ ID NO. 1) (GibcoBRL Custom Primers) at 1 μM, TLR-4 ligand, LPS from Escherichia coli (Sigma, MO, USA) at 10 μg/ml, as previously described^30. CpG or LPS-treated or untreated cells were subsequently assayed for: 1) the expression of DC activation/maturation cell surface markers by FACS, 2) their survival rate by 7AAD staining, or 3) morphological appearance by Wright Giemsa staining on cytospins. […]
# Cytokine production by ELISA. […] The amount of cytokine produced was determined by 1) ELISA kits for mouse IFN-α (R&D system) and mouse TNF-α (Biosource International), and 2). […]
# FC from cultured BM = test: Culture of BMC with FL for 10 days, expansion of FC; conditions: 10 days in culture with FL, n=8
# Procedure: as §1
# (§2) Cell sorting. HSC, FC, and p-preDC were sorted as previously described^9,30,49. HSC were sorted for Sca-1^+c-Kit^+Lin^− expression, FC were sorted for CD8α^+/TCRαβ^−/TCRγδ^− expression, and p-preDC were sorted for CD11c^dim/CD11b^−/B220^+ expression. Briefly, BMC were incubated with Abs on ice for 30 minutes, cells were washed twice in the CSM, filtered, and resuspended to a final concentration of 2.5×10^6 cells/mL in the CSM for cell sorting. The isolation of the cell populations was performed on FACSVantage Flow Cytometers (Becton Dickinson). The populations of interest were isolated from the live lymphoid gate, and after reanalysis, only cells with a purity of >94% were used.
# CD8^+/TCR^− FC = test: Cell death of sorted FC after overnight culture (7AAD staining); conditions: FC from 10 day FL-cultured BM, medium, n=3; versus 53.6% fresh cells
# From the text: (§3) mAbs and Flow cytometry. The following mAbs (all from BD Biosciences Pharmingen, San Diego, Calif., except those labeled with APC-cy-7 from eBioscience, San Diego, Calif.) were used. To sort CD8^+/TCR^− FC: anti-CD8α (53-6.7) PE-labeled, anti-TCR β chain (H57-597) and anti-TCR γδ chain (GL3) FITC-labeled. To sort B220^+/CD11c^dim/CD11b^− p-preDC: anti-CD11b (M1/70) APC-labeled, anti-CD45R/B220 (RA3-6B2) APC-Cy7-labeled, anti-CD11c (HL3) PE-labeled, and anti-TCR β chain (H57-597), anti-TCR γδ chain (GL3), anti-CD14 (rmC5-3), anti-CD19 (1D3), anti-Pan-NK cells (DX5), and anti-NK1.1 (PK136), all FITC-labeled. To sort HSC: anti-TCR β chain (H57-597), anti-TCR γδ chain (GL3), anti-Ly-6G (Gr-1), anti-CD11b, Mac1 (M1/70), anti-CD8α (53-6.7) and anti-CD45R/B220 (RA3-6B2), all FITC-labeled, anti-Ly-6A/E (Sca-1) (E13-161.7) PE-labeled and anti-c-Kit (CD117) (2B8) APC-labeled. To restain the sorted FC population: purified anti-CD16/CD32 (FcγIII/II receptors) (2.4G2), anti-CD11c (HL3), anti-CD4 (RM4-5) and anti-CD19 (1D3) all APC-labeled, anti-CD45R/B220 (RA3-6B2) PerCP-labeled, and anti-Pan-NK cells (DX5), anti-NK1.1 (PK136), anti-CD14 (rmC5-3), and anti-Ly-6G (Gr-1) FITC-labeled. To analyze the activation state: anti-CD80 (B7-1) ([…]), anti-CD86 (B7-2) ([…]), and anti-I-A^b (Aβ^b) (AF6-120.1) FITC-labeled. For PBL typing and multilineage chimerism: anti-H-2 K^b (AF6-88.5) PE or FITC-labeled, anti-H-2K^k (36-7-5) PE or FITC-labeled, anti-TCR β chain (H57-597), anti-NK1.1 (PK136), anti-Ly-6G (Gr-1), anti-CD11b, Mac1 (M1/70) and anti-CD45R/B220 (RA3-6B2) all FITC-labeled. Detection of dead cells after cell culture was determined by using a 7-Amino-actinomycin D (7-AAD) (Molecular Probes, Eugene, Oreg.) followed by FACS analysis.
# (§4) CpG oligodeoxynucleotides (ODN) stimulation. Sorted p-preDC or FC were cultured for 18 hours at 10^5 cells/200 μL in 96 well round-bottom culture plates in culture medium in the presence or absence of Toll-like receptor (TLR)-9 ligand, CPG-ODN 1668 (TCCATGACGTTCCGATGCT) (SEQ ID NO. 1) (GibcoBRL Custom Primers) at 1 μM, TLR-4 ligand, LPS from Escherichia coli (Sigma, MO, USA) at 10 μg/ml, as previously described^30. CpG or LPS-treated or untreated cells were subsequently assayed for: 1) the expression of DC activation/maturation cell surface markers by FACS, 2) their survival rate by 7AAD staining, or 3) morphological appearance by Wright Giemsa staining on cytospins. The supernatant of these cultures were collected for analysis of the production of different cytokines by ELISA.
# p-preDC from cultured BM = test: Culture of BMC with FL for 10 days, expansion of p-preDC; conditions: 10 days in culture with FL, n=4
# Procedure: as §1, §2
# [1] = test system: B220^+/CD11c^dim/CD11b^− p-preDC; test: Activation marker expression on sorted p-preDC after 18 h culture (FACS); conditions: p-preDC from 10 day FL-cultured BMC versus fresh p-preDC
# From the text: as §3, §4
# [2] = test system: B220^+/CD11c^dim/CD11b^− p-preDC; test: Cell death of sorted p-preDC after overnight culture (7AAD staining); conditions: versus fresh cells (data not shown)
# From the text: as §3
# CpG oligodeoxynucleotides (ODN) stimulation. […]
molecule,measurement,setting,value
B1,IFN-α production by FL-derived p-preDC,FL-derived p-preDC,also produced IFN-α
same,increase in FL-derived FC from cultured BM,FC from cultured BM,7 fold
same,death of FL-derived FC after overnight culture,CD8^+/TCR^− FC,71%
same,increase in FL-p-preDC from cultured BM,p-preDC from cultured BM,17 fold
same,CD80 level on FL-derived p-preDC,[1],upregulated
same,CD86 level on FL-derived p-preDC,[1],upregulated
same,Class II level on FL-derived p-preDC,[1],upregulated
same,death of FL-derived p-preDC after overnight culture,[2],more sensitive to death
